Assay results taken from patent publication US7455998B2, “Methods for forming structurally defined organic molecules” (Dow Corning Corporation, priority 2004, dated 2008).
≈ marks a conversion by molar mass, not a printed value.

What was measured:
[1] = biological target: T1, trypsin (Bos taurus, UniProt P00760); conditions: neutral medium (pH 7.0) and toluene
T1 sequence (P00760 24-246): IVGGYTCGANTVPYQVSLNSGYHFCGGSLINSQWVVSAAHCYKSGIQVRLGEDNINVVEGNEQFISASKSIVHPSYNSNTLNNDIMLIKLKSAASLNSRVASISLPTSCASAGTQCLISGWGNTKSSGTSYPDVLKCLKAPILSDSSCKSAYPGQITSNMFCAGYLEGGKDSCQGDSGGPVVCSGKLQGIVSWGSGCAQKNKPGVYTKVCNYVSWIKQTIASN

[2] = biological target: T1, trypsin; assay: Trypsin-catalyzed polycondensation, seven days; format: biochemical, bovine; set-up: purchased Sigma-Aldrich #T4665; host or cells: bovine pancreas; conditions: 25° C.
[3] = Estimated solubility in water
[4] = biological target: T1, trypsin; assay: Trypsin-catalyzed hydrolysis and condensation of alkoxysilanes; format: biochemical, bovine; set-up: purchased Sigma-Aldrich #T4665; host or cells: bovine pancreas
[5] = biological target: T2, α-chymotrypsin (Bos taurus, UniProt P00766); assay: Standard enzymatic activity assay of inhibited α-chymotrypsin; format: biochemical, bovine; conditions: excess inhibitor (4:1 BBI to protease mole ratio), pH 7.0, two hours
T2 construct: purchased Sigma-Aldrich #C-4129; host or cells: bovine pancreas
Text: Since α-chymotrypsin was inhibited by PCI, the presence of trypsin in α-chymotrypsin was confirmed. In addition, condensation was not observed despite the partial inhibition of α-chymotrypsin with BBI.

[6] = biological target: T1, trypsin; assay: Standard enzymatic activity assay of inhibited trypsin; format: biochemical, bovine; set-up: purchased Sigma-Aldrich #T4665; host or cells: bovine pancreas; conditions: excess inhibitor (4:1 BBI, 2:1 PCI to protease mole ratio), pH 7.0, two hours
Description: Since α-chymotrypsin was inhibited by PCI, the presence of trypsin in α-chymotrypsin was confirmed. […] .
A proteinaceous inhibition study was conducted to investigate the role of the enzymatic active site in the hydrolysis and condensation of trimethylethoxysilane.

[7] = biological target: T1, trypsin; assay: Proteinaceous inhibition of the trimethylethoxysilane reaction; format: biochemical, bovine; set-up: purchased Sigma-Aldrich #T4665; host or cells: bovine pancreas; conditions: 25° C., three hours, pH 7.0
Description: A proteinaceous inhibition study was conducted to investigate the role of the enzymatic active site in the hydrolysis and condensation of trimethylethoxysilane. […] .

[8] = Enzyme-catalyzed condensation study after six days; format: biochemical
Text: This study was directed to an enzyme screen with […] in order to evaluate the ability of various enzymes to catalyze the formation of a siloxane bond. Based on the similarities of the proteins isolated from the Tethya aurantia marine sponge (silicatein), Cylindrotheca fusiformis diatom (silaffin), and Equisetum telmateia plant (biopolymer extract), a series of lipases and serine-proteases were selected as homologous proteolytic enzymes. […] […]. In this study, control reactions were defined as non-enzymatic reactions. Specifically, experiments conducted in the absence of a protein were defined as negative control reactions. Proteinaceous molecules such as bovine serum albumin and porcine γ-globulins were used to study non-specific protein catalysis.
[…]. […] (˜200 mg/mL).

[9] = Protease-catalyzed condensation study after three hours; format: biochemical; conditions: pH 7.0, three hours
Description: In comparison to control reactions, the ability of the proteases detailed in Table 3 to catalyse siloxane condensation was screened with […]. Comparatively, the original reactions conducted in the enzyme-catalysed condensation study were performed for six days versus three hours in this study.
Prior to reaction, the glass vials were silylated. […].
TLCK inhibits trypsin by alkylating the histidine residue in the catalytic triad.

[10] = Hydrolysis and condensation of trimethylethoxysilane by different sources of trypsin; effect of calcium; format: biochemical; conditions: 20 mM CaCl2, pH 7.0, 25° C., three hours
Text: Although various sources (e.g. mammalian, fish) of trypsin are similar (e.g. tertiary structure), their selectivity and activity may be different. […] . The reaction products were isolated and quantitatively analysed by GC (FIG. 24).
Calcium activation of trypsin induces changes in the tertiary structure of the enzyme. […] . […] The reaction products were isolated and quantitatively analysed by GC (FIG. 25).

[11] = Temperature and pH studies of the trypsin-catalyzed condensation of trimethylsilanol; format: biochemical
Description: The effect of temperature on trypsin as well as the enzyme-catalyzed condensation reaction was studied. Prior to reaction, buffered aqueous solutions (pH 7.0) of trypsin were stirred and equilibrated at set temperatures in a thermostated water bath (+/−0.1° C.) for 20 minutes. […] In the thermal denaturation experiments, trypsin was boiled for 20 minutes and three hours in 50 mM Tris-HCl buffered Milli-Q water (pH 7.0), independently, before performing the condensation reaction at 25° C.
. […] Based on the chromatographic data, the enzyme-catalyzed condensation reaction was dependent on the pH. The silanol condensation reaction was optimum at pH 7.0.

Molecule: C[Si](C)(C)O[Si](C)(C)C [hexamethyldisiloxane]
- trypsin-catalyzed hydrolysis of the siloxane bond (reverse reaction) [1]: not observed to catalyze the hydrolysis of a siloxane bond

Molecule: CCO[Si](C)(OCC)OCC [methyltriethoxysilane]
- trypsin-catalyzed polycondensation (result in words) [2]: promoted the complete hydrolysis and, subsequent, polycondensation

Molecule: CCO[Si](C)(C)C [trimethylethoxysilane]
- solubility [3]: 1000 µg/mL (≈ 8.46 mM)
- trypsin-catalyzed hydrolysis and condensation (result in words) ([4]; 4:1 monomer to enzyme weight ratio, 25° C., three hours): preferentially catalyze the hydrolysis and condensation
- relative turnover number of hydrolysis ([4]; 10° C.): 0.53 s⁻¹
- condensed in the presence of trypsin ([4]; pH 7.0, 25° C., three hours): 84%
- hydrolysed in the presence of trypsin ([4]; pH 7.0, 25° C., three hours): 100%

B1: BBI: trypsin-chymotrypsin inhibitor from soybean, 71 amino acids (protein, UniProt P01055 40-110, looked up)
Bowman-Birk type proteinase …: DDESSKPCCDQCACTKSNPPQCRCSDMRLNSCHSACKSCICALSYPAQCFCVDITDFCYEPCKPSEDDKEN
- inhibition of α-chymotrypsin [5]: 63%
- inhibition of trypsin [6]: 98%
- decrease of percent hydrolysis of trimethylethoxysilane with inhibited trypsin [7]: 24%

B2: PCI: trypsin inhibitor from Glycine max, 181 amino acids (protein, UniProt P01070 25-205, looked up)
Trypsin inhibitor A: DFVLDNEGNPLENGGTYYILSDITAFGGIRAAPTGNERCPLTVVQSRNELDKGIGTIISSPYRIRFIAEGHPLSLKFDSFAVIMLCVGIPTEWSVVEDLPEGPAVKIGENKDAMDGWFRLERVSDDEFNNYKLVFCPQQAEDDKCGDIGISIDHDDGTRRLVVSKNKPLVVQFQKLDKESL
- inhibition of trypsin [6]: 91%
- decrease of percent hydrolysis of trimethylethoxysilane with inhibited trypsin [7]: 6%

B3: trypsin: bovine pancreatic trypsin, commercial preparation (protein, UniProt P00760 24-246, looked up)
Serine protease 1: T1 sequence (P00760 24-246)
- condensation of trimethylsilanol, Buffered pH 7 ([8]; 50 mM Tris-HCl pH 7.0, 25° C.): ✓ (determined to catalyse the condensation of greater than ten times more trimethylsilanol than the negative control reactions; as well as, greater than three or ten times more trimethylsilanol than the BSA reactions in organic and aqueous media, respectively)
- condensation of trimethylsilanol, Dry Toluene ([8]; dry toluene, 25° C.): ✓ (determined to catalyse the condensation of greater than ten times more trimethylsilanol than the negative control reactions; as well as, greater than three or ten times more trimethylsilanol than the BSA reactions in organic and aqueous media, respectively)
- condensation of trimethylsilanol, Water ([8]; water, 25° C.): ✓ (determined to catalyse the condensation of greater than ten times more trimethylsilanol than the negative control reactions; as well as, greater than three or ten times more trimethylsilanol than the BSA reactions in organic and aqueous media, respectively)
- condensation of trimethylsilanol, Wet Toluene ([8]; wet toluene, 25° C.): ✓ (determined to catalyse the condensation of greater than ten times more trimethylsilanol than the negative control reactions; as well as, greater than three or ten times more trimethylsilanol than the BSA reactions in organic and aqueous media, respectively)
- condensation of trimethylsilanol (result in words) [9]: preferentially catalyzed the condensation
- increase of yield of the condensation of trimethylsilanol with calcium [10]: did not change
- optimum pH of the silanol condensation reaction ([11]; 25° C., three hours, pH 4.0 to pH 10.0): 7.0
- optimum temperature of the condensation reaction ([11]; pH 7.0, three hours): approximately 25 °C
